These results are taken from publication doi:10.1101/203372 (bioRxiv, 2017).

For test [1], the target named is Ubiquitin, human, recombinant (tag-free mono-Ub) (human, UniProt P0CG48 1-76). Put plainly: MST.
Test [2] concerns the target Ubiquitin, human, recombinant, His-tag (His6-Ub) (human, UniProt P0CG48 1-76). As to the kind of experiment: MST.

The term Kd denotes the concentration at which binding is half-saturated.

B1: HDAC6-EGFP WT (full-length human histone deacetylase 6 fused to EGFP) (enzyme)
chain: MTSTGQDSTTTRQRRSRQNPQSPPQDSSVTSKRNIKKGAVPRSIPNLAEVKKKGKMKKLGQAMEEDLIVGLQGMDLNLEAEALAGTGLVLDEQLNEFHCLWDDSFPEGPERLHAIKEQLIQEGLLDRCVSFQARFAEKEELMLVHSLEYIDLMETTQYMNEGELRVLADTYDSVYLHPNSYSCACLASGSVLRLVDAVLGAEIRNGMAIIRPPGHHAQHSLMDGYCMFNHVAVAARYAQQKHRIRRVLIVDWDVHHGQGTQFTFDQDPSVLYFSIHRYEQGRFWPHLKASNWSTTGFGQGQGYTINVPWNQVGMRDADYIAAFLHVLLPVALEFQPQLVLVAAGFDALQGDPKGEMAATPAGFAQLTHLLMGLAGGKLILSLEGGYNLRALAEGVSASLHTLLGDPCPMLESPGAPCRSAQASVSCALEALEPFWEVLVRSTETVERDNMEEDNVEESEEEGPWEPPVLPILTWPVLQSRTGLVYDQNMMNHCNLWDSHHPEVPQRILRIMCRLEELGLAGRCLTLTPRPATEAELLTCHSAEYVGHLRATEKMKTRELHRESSNFDSIYICPSTFACAQLATGAACRLVEAVLSGEVLNGAAVVRPPGHHAEQDAACGFCFFNSVAVAARHAQTISGHALRILIVDWDVHHGNGTQHMFEDDPSVLYVSLHRYDHGTFFPMGDEGASSQIGRAAGTGFTVNVAWNGPRMGDADYLAAWHRLVLPIAYEFNPELVLVSAGFDAARGDPLGGCQVSPEGYAHLTHLLMGLASGRIILILEGGYNLTSISESMAACTRSLLGDPPPLLTLPRPPLSGALASITETIQVHRRYWRSLRVMKVEDREGPSSSKLVTKKAPQPAKPRLAERMTTREKKVLEAGMGKVTSASFGEESTPGQTNSETAVVALTQDQPSEAATGGATLAQTISEAAIGGAMLGQTTSEEAVGGATPDQTTSEETVGGAILDQTTSEDAVGGATLGQTTSEEAVGGATLAQTTSEAAMEGATLDQTTSEEAPGGTELIQTPLASSTDHQTPPTSPVQGTTPQISPSTLIGSLRTLELGSESQGASESQAPGEENLLGEAAGGQDMADSMLMQGSRGLTDQAIFYAVTPLPWCPHLVAVCPIPAAGLDVTQPCGDCGTIQENWVCLSCYQVYCGRYINGHMLQHHGNSGHPLVLSYIDLSAWCYYCQAYVHHQALLDVKNIAHQNKFGEDMPHPH
As for B1, the Kd in test [1] worked out at 1250 ± 147 nM; in test [2] it was 69 nM.
